Measurements from patent US20130101582A1, “Tiki1 and Tiki2, Wnt Inhibitors” (CHILDREN'S MEDICAL CENTER CORPORATION, priority 2010, published 2013).
One block for each molecule: values may come before it.

What was measured:
[1] = tested on: Tiki1 expression; experiment: Regulation of Tiki1 and Dkk1 expression by maternal Wnt signaling, RT-PCR; type: in vivo; settings: Xenopus embryos, RT-PCR at stage 10.5
Protocol: FIG. 3C is a gel showing that Tiki1 expression is regulated by maternal Wnt signaling. Whole embryos were used for LiCl or UV treatment. 20 or 40 pg of Xwnt8 mRNA was injected into ventral marginal zone (VMZ) at 4 to 8-cell stage and VMZ was dissected at stage 10.5 for RT-PCR. ΔNTCF mRNA (1 or 2 ng) was injected into dorsal marginal zone (DMZ) at 4 to 8-cell stage and DMZ was dissected at stage 10.5 for RT-PCR. Con: control.
SO formation requires maternal Wnt/β-catenin signaling (De Robertis, E. M. et al., Annu Rev Cell Dev Biol 20, 285-308 (2004); Harland, R. et al., Annu Rev Cell Dev Biol 13, 611-667 (1997)), which we found is necessary and sufficient for Tiki1 (and Dkk1) expression.

[2] = tested on: Wnt3a signaling; experiment: TOPFLASH reporter assay, Wnt3a co-transfected with Tiki1 or Tiki2 in HEK293T cells; type: cell-based, human
Description: Wnt3a and Tiki1 or Tiki2 were co-transfected. The TOPFLASH reading (normalized to Renilla) in Wnt3a alone was set as 100. DNA transfection amounts are shown per well in a standard 24-well plate format. Representative data from one of three independent experiments is shown.
The enlarged head phenotype by Tiki1 overexpression is indistinguishable from that by overexpression of Dkk1, a Wnt/LRP6 antagonist (MacDonald, B. T. et al., Dev Cell 17, 9-26 (2009); Glinka, A. et al., Nature 391, 357-362 (1998)). […] Thus Tiki1 likely acts at or upstream of Wnt receptors. […] Xenopus Tiki2, and human Tiki1 and Tiki2 also behaved as Wnt antagonists in Xenopus embryos, HEK293T cells (FIG. 2C) and mouse L cells (FIG. 5A).

[3] = molecular target: Recombinant human WNT3A protein (Homo sapiens, UniProt P56704); experiment: In vitro incubation of recombinant WNT3A with purified protein, Triton X-114 phase separation; type: biochemical; settings: purified protein incubated with recombinant human WNT3A
Chain of Recombinant human WNT3A protein (P56704 19-352): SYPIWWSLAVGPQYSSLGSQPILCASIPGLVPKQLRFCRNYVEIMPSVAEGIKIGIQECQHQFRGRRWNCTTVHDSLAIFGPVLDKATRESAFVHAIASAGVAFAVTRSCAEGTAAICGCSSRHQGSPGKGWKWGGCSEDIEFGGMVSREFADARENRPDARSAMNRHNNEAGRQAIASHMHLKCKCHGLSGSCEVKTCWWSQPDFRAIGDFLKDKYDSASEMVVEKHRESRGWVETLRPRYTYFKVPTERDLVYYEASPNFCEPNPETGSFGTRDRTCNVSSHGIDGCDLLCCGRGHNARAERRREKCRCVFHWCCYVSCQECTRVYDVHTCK
Protocol: FIG. 6G is a gel showing that recombinant WNT3A was incubated with Krm2N or Tiki2N purified from WCL (top) or from CM (bottom) and was subjected to Triton X-114 phase separation.
FIG. 6H is a gel showing that Recombinant WNT3A was incubated with Krm2N or Tiki2N or Tiki2NΔ. purified from WCL and was subjected to Triton X-114 phase separation.
Recombinant human Tiki2N, which is the ectodomain harboring the conserved Tiki domain (FIG. 6J), was purified, via tandem affinity procedures from HEK293T cell extracts or CM.

Molecule: [Cl-].[Li+] [LiCl]
Tiki1 and Dkk1 expression [1]: induced Tiki1 and Dkk1 expression

B1: Human Tiki1: Human Tiki1 (Q86V40/LOC129293) (SEQ ID NO:1), expressed by transfection (protein, listed as Homo sapiens)
chain: MSPWSWFLLQTLCLLPTGAASRRGAPGTANCELKPQQSELNSFLWTIKRDPPSYFFGTIHVPYTRVWDFIPDNSKEAFLQSSIVYFELDLTDPYTISALTSCQMLPQGENLQDVLPRDIYCRLKRHLEYVKLMMPLWMTPDQRGKGLYADYLFNAIAGNWERKRPVWVMLMVNSLTEVDIKSRGVPVLDLFLAQEAERLRKQTGAVEKVEEQCHPLNGLNFSQVIFALNQTLLQQESLRAGSLQIPYTTEDLIKHYNCGDLSSVILSHDSSQVPNFINATLPPQERITAQEIDSYLRRELIYKRNERIGKRVKALLEEFPDKGFFFAFGAGHFMGNNTVLDVLRREGYEVEHAPAGRPIHKGKSKKTSTRPTLSTIFAPKVPTLEVPAPEAVSSGHSTLPPLVSRPGSADTPSEAEQRFRKKRRRSQRRPRLRQFSDLWVRLEESDIVPQLQVPVLDRHISTELRLPRRGHSHHSQMVASSACLSLWTPVFWVLVLAFQTETPLL
Wnt3a signaling, TOPFLASH reporter [2]: inhibit Wnt3a signaling

Partitioning of WNT3A in Triton X-114 phase separation after in vitro incubation [3]: remained in the detergent phase
B2: KrmN: control recombinant protein, ectodomain of the transmembrane Kremen protein (protein, UniProt Q8NCW0 26-364, looked up)
extracellular domain: GSLHSPGLSECFQVNGADYRGHQNRTGPRGAGRPCLFWDQTQQHSYSSASDPHGRWGLGAHNFCRNPDGDVQPWCYVAETEEGIYWRYCDIPSCHMPGYLGCFVDSGAPPALSGPSGTSTKLTVQVCLRFCRMKGYQLAGVEAGYACFCGSESDLARGRLAPATDCDQICFGHPGQLCGGDGRLGVYEVSVGSCQGNWTAPQGVIYSPDFPDEYGPDRNCSWALGPPGAALELTFRLFELADPRDRLELRDAASGSLLRAFDGARPPPSGPLRLGTAALLLTFRSDARGHAQGFALTYRGLQDAAEDPEAPEGSAQTPAAPLDGANVSCSPRPGAPPAA
modifications: extracellular domain

Partitioning of WNT3A in Triton X-114 phase separation after in vitro incubation [3]: remained in the detergent phase
B3: Tiki2NΔ: deletion mutant lacking a segment of the Tiki domain, inactive in modifying WNT3A (protein)
chain: RPQPPDGGQCRPPGSQRDLNSFLWTIRRDPPAYLFGTIHVPYTRVWDFIPDNSKAAFQASTRVYFELDLTDPYTISALASCQLLPHGENLQDVLPHELYWRLKRHLDYVKLMMPSWMTPAQRGKGLYADYLFNAIAGNWERKRPVWVMLMVNSLTERDVRFRGVPVLDLYLAQQAEKMKKTTGAVEQVEEQCHPLNNGLNFSQVLFALNQTLLQQESVRAGSLQASYTTEDLIKHYNCGDLSAVIFNHDTSQLPNFINTTLPPHEQVTAQEIDSYFRQELIYKRNERMGKRVMALLRENEDKICFFAFGAGHFLGNNTVIDILRQAGLEVDHTPAGQAIHSPAPQSPAPSPEGTSTSPAPVTPAAAVPEAPSVTPTAPPEDEDPALSPHLLLPDSLSQLEEFGRQRKWHKRQSTHQRPRQFNDLWVRIEDSTTASPPPLPLQPTHSSGTAKPPFQLSDQLQQQDPPG
modifications: left off: small tags and cut ends
